From paper PMC3210482 (Journal of molecular biology, 2011)
Like-named read-outs stand apart in the source and are kept apart here.

Experiments:
FRET or BRET [1] = molecular target: the molecule itself; assay: FRET or BRET
FRET or BRET [2] = molecular target: the molecule itself; assay: FRET or BRET; remark: listed apart in the source

Protein	Kd (FRET or BRET [1]) [nM]	Kd (FRET or BRET [2]) [nM]
EnvZHDC (cytoplasmic HAMP, DHp and CA domains of E. coli histidine kinase EnvZ, amino acids 179-450) (domain or fragment, UniProt P0AEJ4 179-450, looked up) IRIQNRPLVDLEHAALQVGKGIIPPPLREYGASEVRSVTRAFNHMAAGVKQLADDRTLLMAGVSHDLRTPLTRIRLATEMMSEQDGYLAESINKDIEECNAIIEQFIDYLRTGQEMPMEMADLNAVLGEVIAAESGYEREIETALYPGSIEVKMHPLSIKRAVANMVVNAARYGNGWIKVSSGTEPNRAWFQVEDDGPGIAPEQRKHLFQPFVRGDSARTISGTGLGLAIVQRIVDNHNGMLELGTSERGGLSIRAWLPVPVTRAQGTTKEG	400	–
RstBHDC (cytoplasmic HAMP, DHp and CA domains of E. coli histidine kinase RstB, amino acids 157-433) (domain or fragment, UniProt P18392 157-433, looked up) MRPHWQDMLKLEAAAQRFGDGHLNERIHFDEGSSFERLGVAFNQMADNINALIASKKQLIDGIAHELRTPLVRLRYRLEMSDNLSAAESQALNRDISQLEALIEELLTYARLDRPQNELHLSEPDLPLWLSTHLADIQAVTPDKTVRIKTLVQGHYAALDMRLMERVLDNLLNNALRYCHSTVETSLLLSGNRATLIVEDDGPGIAPENREHIFEPFVRLDPSRDRSTGGCGLGLAIVHSIALAMGGTVNCDTSELGGARFSFSWPLWHNIPQFTSA	300	–
EnvZDC (DHp and CA domains of E. coli EnvZ, amino acids 223-450) (domain or fragment, UniProt P0AEJ4 223-450, looked up) MAAGVKQLADDRTLLMAGVSHDLRTPLTRIRLATEMMSEQDGYLAESINKDIEECNAIIEQFIDYLRTGQEMPMEMADLNAVLGEVIAAESGYEREIETALYPGSIEVKMHPLSIKRAVANMVVNAARYGNGWIKVSSGTEPNRAWFQVEDDGPGIAPEQRKHLFQPFVRGDSARTISGTGLGLAIVQRIVDNHNGMLELGTSERGGLSIRAWLPVPVTRAQGTTKEG	100	–
RstBDC (DHp and CA domains of E. coli RstB, amino acids 201-433) (domain or fragment, UniProt P18392 201-433, looked up) MADNINALIASKKQLIDGIAHELRTPLVRLRYRLEMSDNLSAAESQALNRDISQLEALIEELLTYARLDRPQNELHLSEPDLPLWLSTHLADIQAVTPDKTVRIKTLVQGHYAALDMRLMERVLDNLLNNALRYCHSTVETSLLLSGNRATLIVEDDGPGIAPENREHIFEPFVRLDPSRDRSTGGCGLGLAIVHSIALAMGGTVNCDTSELGGARFSFSWPLWHNIPQFTSA	–	270000
